For this experiment, the target named is T1, Mcl-1, Q07820.
T1 chain: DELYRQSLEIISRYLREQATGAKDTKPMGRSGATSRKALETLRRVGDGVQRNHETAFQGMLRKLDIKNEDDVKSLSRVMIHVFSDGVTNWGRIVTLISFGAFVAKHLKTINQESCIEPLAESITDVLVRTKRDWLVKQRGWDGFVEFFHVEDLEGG
As to the kind of experiment: peptide SPOT array, c-Myc-tagged receptor at 1 uM or 100 nM, anti-c-Myc-Cy3.

Molecule YKSLLLLAYLIRNGSERVVTSAREHI [CLINT1] had an SPOT signal as a fraction of Bim BH3's signal on the same receptor and array of 0.05.

In the case of VPSGTSLARNLKRVAETWMDEFAEYI [GALNTL6], the SPOT signal as a fraction of Bim BH3's signal on the same receptor and array amounted to 0.02.

AFVGRLVSTLISKAGRELGENLDQIL [IPO9] returned an SPOT signal as a fraction of Bim BH3's signal on the same receptor and array of 0.03.

Molecule GETDANVAKFLNRLSDYLFTLARYAA [MMAB] yielded an SPOT signal as a fraction of Bim BH3's signal on the same receptor and array of 0.02.

Turning to RNIASQTVARLKDVARRISSCLDFEQ [HERC2], the SPOT signal as a fraction of Bim BH3's signal on the same receptor and array is 0.06.

As for YGKVRKAASSIDQFSIRLGIFLRRYP [GOLGA5], the SPOT signal as a fraction of Bim BH3's signal on the same receptor and array turned out to be 0.29.

The molecule NPKNKTHACYLKELGEQFVVRANHQV [NWD1] showed an SPOT signal as a fraction of Bim BH3's signal on the same receptor and array of 0.04.

For the molecule FGDEGAVIEVLHRGSADLNARNKRRQ [MIB1], the SPOT signal as a fraction of Bim BH3's signal on the same receptor and array is 0.05.

In the case of GKRMKQFPEVIKYLSRNVVHSVRREH [BAZ2A], the SPOT signal as a fraction of Bim BH3's signal on the same receptor and array worked out at 0.29.

Molecule AEIETEYSRNLEKLAERFMAKTRSTK [SRGAP1] yielded an SPOT signal as a fraction of Bim BH3's signal on the same receptor and array of 0.11.

GADHPDVAKQLNNLALLCQNQGKFED [KLC3] had an SPOT signal as a fraction of Bim BH3's signal on the same receptor and array of 0.01.

For QDKMLVAVKALKEASESARQDFQREA [NTRK1], the SPOT signal as a fraction of Bim BH3's signal on the same receptor and array amounted to 0.02.

Molecule DLVVSELATVIKKCAEKLSSYPRLRE [DNM2] returned an SPOT signal as a fraction of Bim BH3's signal on the same receptor and array of 0.06.

As for LLLPKGVVLKLKPVATRFPRKAWRQK [GON4L], the SPOT signal as a fraction of Bim BH3's signal on the same receptor and array is 0.32.

For the molecule IPGSAVCAFDLTQVAAVFEGRFREQK [SEMA6B], the SPOT signal as a fraction of Bim BH3's signal on the same receptor and array was determined as 0.02.

Molecule EGPEVICAQILQGCAKQALEKLEEKR [NCAPD2] came in with an SPOT signal as a fraction of Bim BH3's signal on the same receptor and array of 0.02.

AIVADRMVEILFHYADRALKKCPDQG [VPS8] had an SPOT signal as a fraction of Bim BH3's signal on the same receptor and array of 0.02.

On to RDSFKHLIGGLDDVSNKAYEDAEAKA [PRKG1], for which the SPOT signal as a fraction of Bim BH3's signal on the same receptor and array stood at 0.01.

Take EQWAREIGAQLRRMADDLNAQYERRR [BBC3]: the SPOT signal as a fraction of Bim BH3's signal on the same receptor and array stood at 0.76.

In turn, FVQDASAASALKDVSYKIYDDENQKI [NXF2] gave an SPOT signal as a fraction of Bim BH3's signal on the same receptor and array of 0.01.

Turning to VPKIASVVGILGHLASRHGDSIRREL [INTS5], the SPOT signal as a fraction of Bim BH3's signal on the same receptor and array is 0.05.

Molecule SGEFARICRDLSHILDAVVISCAKDG [PCNA] registered an SPOT signal as a fraction of Bim BH3's signal on the same receptor and array of 0.01.

The molecule DPLNDNIATLLHQSSDKFVSELWKDV [MYH9] came in with an SPOT signal as a fraction of Bim BH3's signal on the same receptor and array of 0.02.

Consider LFHLLEFCLLLNQFSRAVAAKWKDDV [RLN1], for which the SPOT signal as a fraction of Bim BH3's signal on the same receptor and array was 0.02.

For EDLKENLAAGIKQIAEFLGFFLTGEQ [SULT6B1], the SPOT signal as a fraction of Bim BH3's signal on the same receptor and array is 0.02.

In turn, TGVNGEISYSLFQASEEIGKTFKINP [PCDHB13] came in with an SPOT signal as a fraction of Bim BH3's signal on the same receptor and array of 0.01.

In the case of GFKTTVYVSHINDLSDFYVQLIEDEA [TDRD6], the SPOT signal as a fraction of Bim BH3's signal on the same receptor and array was 0.02.

LGKRTSSVQALKRSARELIEGSRDDS [DST] came in with an SPOT signal as a fraction of Bim BH3's signal on the same receptor and array of 0.05.

In turn, FVQVASAASALKDVSYKIYDDENQKI [NXF5] registered an SPOT signal as a fraction of Bim BH3's signal on the same receptor and array of 0.02.

The molecule RFNLMQVGRLLQQLAMTGSEEGDPRT [GAPVD1] came in with an SPOT signal as a fraction of Bim BH3's signal on the same receptor and array of 0.04.

Molecule FVENASIAYALKNVSGKIWDEDNEKI [NXF3] yielded an SPOT signal as a fraction of Bim BH3's signal on the same receptor and array of 0.02.

For CYRGQLAASVLRQISRELGPQEPTGS [FAM129C], the SPOT signal as a fraction of Bim BH3's signal on the same receptor and array amounted to 0.07.

Take KKDKARVSELLQGLSFSGDSDVEKDN [PGBD1]: the SPOT signal as a fraction of Bim BH3's signal on the same receptor and array stood at 0.01.

As to ATPPAASPSALKGVSQDLLERIRAKE [CDT1], the SPOT signal as a fraction of Bim BH3's signal on the same receptor and array came to 0.03.

CVQSTKPSLMIQKAAIQALRKMEPKD [APOB]: the SPOT signal as a fraction of Bim BH3's signal on the same receptor and array worked out at 0.09.

Consider TYEKPQVAEALQRAARIAISVIEFKP [RTDR1], for which the SPOT signal as a fraction of Bim BH3's signal on the same receptor and array is 0.02.

TSMETIGAKALEDFADNIKNDPDKEY [EXOC7] yielded an SPOT signal as a fraction of Bim BH3's signal on the same receptor and array of 0.01.

These data come from PMC4072508, “Genome-Wide Prediction and Validation of Peptides That Bind Human Prosurvival Bcl-2 Proteins” (PLoS Computational Biology, 2014).
